How the values were obtained:
[1] = biological target: T1, TDG (thymine DNA glycosylase) (human, UniProt Q13569 1-410); assay: EMSA; Hill 1.8; EMSA: 5 nM substrate, 100 mM NaCl, 2.5 mM MgCl2, 10 mM Tris-HCl pH 7.5, 5% glycerol, 30 min 30 C, 0.6% agarose 1x TBE 4 C; NMR: 0.1 M NaCl, 0.03 mM TCEP, 15 mM; details: protein: recombinant; tags: His tag (pET28a, TALON purified); label: 5'-FAM strand 1; blunt; G-UF pair intended
[2] = biological target: T1, TDG (thymine DNA glycosylase); assay: EMSA; Hill 2.0; EMSA: 5 nM substrate, 100 mM NaCl, 2.5 mM MgCl2, 10 mM Tris-HCl pH 7.5, 5% glycerol, 30 min 30 C, 0.6% agarose 1x TBE 4 C; NMR: 0.1 M NaCl, 0.03 mM TCEP, 15 mM; details: protein: recombinant; tags: His tag (pET28a, TALON purified); label: 5'-FAM strand 1; blunt
[3] = biological target: T1, TDG (thymine DNA glycosylase); assay: EMSA; Hill 4.5; EMSA: 5 nM substrate, 100 mM NaCl, 2.5 mM MgCl2, 10 mM Tris-HCl pH 7.5, 5% glycerol, 30 min 30 C, 0.6% agarose 1x TBE 4 C; NMR: 0.1 M NaCl, 0.03 mM TCEP, 15 mM; details: protein: recombinant; tags: His tag (pET28a, TALON purified); label: 5'-FAM strand 1; blunt
[4] = biological target: T1, TDG (thymine DNA glycosylase); assay: EMSA; Hill 3.0; EMSA: 5 nM substrate, 100 mM NaCl, 2.5 mM MgCl2, 10 mM Tris-HCl pH 7.5, 5% glycerol, 30 min 30 C, 0.6% agarose 1x TBE 4 C; NMR: 0.1 M NaCl, 0.03 mM TCEP, 15 mM; details: protein: recombinant; tags: His tag (pET28a, TALON purified); label: 5'-FAM strand 1; blunt
[5] = biological target: T1, TDG (thymine DNA glycosylase); assay: EMSA; Hill 4.9; EMSA: 5 nM substrate, 100 mM NaCl, 2.5 mM MgCl2, 10 mM Tris-HCl pH 7.5, 5% glycerol, 30 min 30 C, 0.6% agarose 1x TBE 4 C; NMR: 0.1 M NaCl, 0.03 mM TCEP, 15 mM; details: protein: recombinant; tags: His tag (pET28a, TALON purified); label: 5'-FAM strand 1; blunt
[6] = biological target: T1, TDG (thymine DNA glycosylase); assay: EMSA; Hill 2.3; EMSA: 5 nM substrate, 100 mM NaCl, 2.5 mM MgCl2, 10 mM Tris-HCl pH 7.5, 5% glycerol, 30 min 30 C, 0.6% agarose 1x TBE 4 C; NMR: 0.1 M NaCl, 0.03 mM TCEP, 15 mM; details: protein: recombinant; tags: His tag (pET28a, TALON purified); label: 5'-FAM strand 1; blunt
[7] = biological target: T1, TDG (thymine DNA glycosylase); assay: EMSA; Hill 2.7; EMSA: 5 nM substrate, 100 mM NaCl, 2.5 mM MgCl2, 10 mM Tris-HCl pH 7.5, 5% glycerol, 30 min 30 C, 0.6% agarose 1x TBE 4 C; NMR: 0.1 M NaCl, 0.03 mM TCEP, 15 mM; details: protein: recombinant; tags: His tag (pET28a, TALON purified); label: 5'-FAM strand 1; blunt
[8] = biological target: T1, TDG (thymine DNA glycosylase); assay: EMSA; EMSA: 5 nM substrate, 100 mM NaCl, 2.5 mM MgCl2, 10 mM Tris-HCl pH 7.5, 5% glycerol, 30 min 30 C, 0.6% agarose 1x TBE 4 C; NMR: 0.1 M NaCl, 0.03 mM TCEP, 15 mM; details: protein: recombinant; tags: His tag (pET28a, TALON purified); blunt
[9] = biological target: T1, TDG (thymine DNA glycosylase); assay: EMSA; Hill 2.9; EMSA: 5 nM substrate, 100 mM NaCl, 2.5 mM MgCl2, 10 mM Tris-HCl pH 7.5, 5% glycerol, 30 min 30 C, 0.6% agarose 1x TBE 4 C; NMR: 0.1 M NaCl, 0.03 mM TCEP, 15 mM; details: protein: recombinant; tags: His tag (pET28a, TALON purified); label: 5'-FAM strand 1; 5' overhang 1 nt (strand 1)
[10] = biological target: T1, TDG (thymine DNA glycosylase); assay: EMSA; Hill 6.1; EMSA: 5 nM substrate, 100 mM NaCl, 2.5 mM MgCl2, 10 mM Tris-HCl pH 7.5, 5% glycerol, 30 min 30 C, 0.6% agarose 1x TBE 4 C; NMR: 0.1 M NaCl, 0.03 mM TCEP, 15 mM; details: protein: recombinant; tags: His tag (pET28a, TALON purified); label: 5'-FAM strand 1; 5' overhang 1 nt (strand 1)

T1 sequence (Q13569 whole entry): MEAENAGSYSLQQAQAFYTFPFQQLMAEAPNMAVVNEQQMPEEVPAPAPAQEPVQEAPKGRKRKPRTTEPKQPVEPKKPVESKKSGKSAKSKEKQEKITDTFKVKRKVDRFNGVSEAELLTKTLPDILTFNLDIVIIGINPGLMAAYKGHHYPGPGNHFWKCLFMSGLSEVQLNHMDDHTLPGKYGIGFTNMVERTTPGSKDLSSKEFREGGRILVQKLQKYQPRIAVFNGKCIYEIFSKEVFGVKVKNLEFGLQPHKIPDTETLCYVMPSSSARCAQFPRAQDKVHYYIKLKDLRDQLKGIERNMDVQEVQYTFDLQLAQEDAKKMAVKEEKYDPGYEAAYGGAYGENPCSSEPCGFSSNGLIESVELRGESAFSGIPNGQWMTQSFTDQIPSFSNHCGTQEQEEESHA

B1: D1-UF (dsDNA)
DNA 1: TGAGGATGTATATATCTGAUGCGCCGGTGGAGC
DNA 2: GCTCCACCGGCGCGTACGATATATACATCCTCA
modifications: 2'-deoxy-2'-fluoroarabinouridine (UF) at strand 1 pos 20
With B1 the Kd [1] was 32 nM.

B2: D1-5caC (dsDNA)
DNA 1: TGAGGATGTATATATCTGACGCGCCGGTGGAGC
DNA 2: GCTCCACCGGCGCGTACGATATATACATCCTCA
modifications: 5-carboxycytosine at strand 1 pos 20
B2 gave a Kd [2] of 25 nM.

B3: H1-C (DNA:RNA)
DNA: TGAGGATGTATATATCTGACGCGCCGGTGGAGC
RNA: GCUCCACCGGCGCGUACGAUAUAUACAUCCUCA
modifications: strand 2 RNA
For B3, the Kd [3] was 67 nM.

B4: D1-5fC (dsDNA)
DNA 1: TGAGGATGTATATATCTGACGCGCCGGTGGAGC
DNA 2: GCTCCACCGGCGCGTACGATATATACATCCTCA
modifications: 5-formylcytosine at strand 1 pos 20
B4 gave a Kd [4] of 56 nM.

B5: H1-5fC (DNA:RNA)
DNA: TGAGGATGTATATATCTGACGCGCCGGTGGAGC
RNA: GCUCCACCGGCGCGUACGAUAUAUACAUCCUCA
modifications: 5-formylcytosine at strand 1 pos 20; strand 2 RNA
B5 showed a Kd [5] of 60 nM.

B6: D1-C (dsDNA)
DNA 1: TGAGGATGTATATATCTGACGCGCCGGTGGAGC
DNA 2: GCTCCACCGGCGCGTACGATATATACATCCTCA
Work on B6 yielded a Kd [6] of 43 nM.

B7: H1-5caC (DNA:RNA)
DNA: TGAGGATGTATATATCTGACGCGCCGGTGGAGC
RNA: GCUCCACCGGCGCGUACGAUAUAUACAUCCUCA
modifications: 5-carboxycytosine at strand 1 pos 20; strand 2 RNA
In the case of B7, the Kd [7] is reported as 31 nM.

B8: TCF21-DNA (unmodified) (dsDNA)
DNA 1: TCCTAGTGTCCACCAAATTCCTCAGCGCTCGCTCACCCTCCTCTACGGCCACGACTCTGGGAGTG
DNA 2: CACTCCCAGAGTCGTGGCCGTAGAGGAGGGTGAGCGAGCGCTGAGGAATTTGGTGGACACTAGGA
B8 was tested, and the Kd [8] was 49 nM.

B9: D2-C (dsDNA)
DNA 1: TGTGTCACCACTGCTCACGTACAGAGCTG
DNA 2: CAGCTCTGTACGTGAGCAGTGGTGACAC
B9 was tested, and the Kd [9] was 47 nM.

B10: H2-C (DNA:RNA)
DNA: TGTGTCACCACTGCTCACGTACAGAGCTG
RNA: CAGCUCUGUACGUGAGCAGUGGUGACAC
modifications: strand 2 RNA
With B10 the Kd [10] was 57 nM.

Source: article PMC13022674, “Thymine DNA glycosylase binds to R-loops and excises 5-formyl and 5-carboxyl cytosine from DNA/RNA hybrids”
